From the NTF2 design screens of Basanta et al. (2020)

Assay: protease stability score; higher = more stable; yeast display proteolysis, trypsin and chymotrypsin;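 note: log10 excess protease needed over predicted unfolded state with 0 meaning unfolded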

| Sequence | protease stability score |
| --- | --- |
| DDDAMRKAHEFYTAYNTNDEDTLSKQFDPNARIRYGDEVIHGREQLKKWMEEIQREMSVSVRVKSMKVRGDEIHIKFDMTVDINGNPLEFDAQAEFRFRNGKFIDFTLQIPEEAQKQEHG | 0.704 |
| DETEEVQKLVHRWRQAMEDGNPDDLRKNMDEDAEMRYGDKSWHGRENIAQNLHKERQRADSISITIEDMDHENGKAVVHLNITFTVNGRKETKRYDLDVEVNGDKLKIKQIQQE | 0.247 |
| DPRKVKDAVRKVVEAMMNGDVEKIVKLYKPDGELYLGSQKVRGQEQVEKEAKKFYDKGARFQVKEQHVKGDNATVVFDMTANGQTVTFQFEIKVKDDTVDKYEVRFTEKADELRRKG | -0.136 |
| DEKDVERVLEAIKTNNRSEIRNQADPNARARVGDKKLHGMEDAAHKFAKFLDRADNHEVKDVSVDGDRATMDVKVRVDGEDVRFVVKFQVKNGRITHLEVEATSDHVDRRAEQAMK | 0.581 |
| DDETAEKLAREFIEALKEGNEEQVRRLVDENVRVEVGDTTFHGREEAAKFAKEFKQHADHVEIRDVSVHGDKVELNLVLNVNGRERDVVVIVRVENGKIKEFQYREN | 1.22 |
| DEVEKAKNLFDRLVRAFKNNNWKQFSDLADEDVRYVVGDKEWHGREQADEMFREMVEEIDHYDIHVKDIKFHNGKVDLKATASFSVNGKTHRFTVEWRVQMHNGHLRVKQVILK | 1.25 |
| DEENLHRRAEQFVKALEHGDQHQFRRMFDENARVEVGDKFFHGREEVARFMRDLTRRIDHVQFRRMEVRGEKIIVKAEAHVNGKRVTIIFDLTVKNGRIKHVRITFTDEKDRREFER | 1.12 |
| DKEEAKKILDKAVKAVENGNLEELKQMGKEGVEYELIDKKAHGPEVVHKVMEKLQRHGAELEFKRVQVEGDTVHTVVDYRVGDTEMRATAEATVQGGRIDKVRIEMSEEAQKTIKHG | -0.272 |
| DEHDVRELLKALTTGNEDDMRKMLDKDVTANIGNFRVKGREQQLTLIRRMLERADHLSVTSFSSHNGNVEVDVQVTVDGRRIRYVIRAQAHNGKVNSVRMDVTDHSVEQTLRHLHS | 1.36 |
| DEDAMKRFKDLLRAQETGDEHRIRELVDPNAQFVIGDRKITGREEYVRIFREERENMHIDLEVKSVSVKGNKLTIHLTFKVDHNGKPMRASAQIQVKIRNGRIQEVQYDFDEDQLRKLKR | 0.32 |
| EEEDVRKAKKFIQLLNSNDQENLKTLADPNATFRYGDKHIHGMDRVNQYLDRVDHTMKRDIEVTSMSAQGDHVRIHAIMRFKVNGNPDQIDIIIVVVVENGRIKEVQIRMPEEDKRRVDR | 0.416 |
| DEKETQKLLEKLAKYFVNGDLEKVKKVGKEDVEVEYGSERKHGPDAMKEHVETHKRLGIEVRYEEVHVEGDTVTAKVQADVAGHTAEMTVVYQAQGRRVDKVKLKYSEKAQKAIKHG | -0.133 |
| DEHHTQEARKFLENQQTGNETELQKYADPNASAQIGDKRVHGMEKFAHTIRKEVDELRMTIHDVRFDANGEKVIVHVDVQYDHNGRPERATMVVLFKHNNGKATEITARYDK | 0.411 |
| DEEQARRFREFMEVVRQGDEEKIKRYVDPNARVEVGEETLHGREDIAEWWQKVVRQIRVDITITKMSVSNGKLEIHARAQYEHNGTPEDNRQVIVIQWHNGVAKTIRMEKDG | 0.653 |
| DEDANRLVEEYIRAVEKGDEDQARRMMDENVTVKVGDKTVHGHDHQAREMNKVKKQARIEIKDYRLDNSNGRVVIRMTFIADRNGKPITFDIVIIINFHNGRAKNMHVHISEEELKRLEG | 1.06 |
| DREKEAHELIEHFVRMLETGDEEKFKEMMDKDAKLHVGDKDVHGRDDVDRHLAQEYKQYDHVHFRVKDVKVRGDTIEAQVEVQFDHNGKTDTRTYRFVMRVDNGDVKFQSVSNS | 1.45 |
| DDEKVAEQIMNEVLTAIKNNDPQEAADNMDKDARAEVGDNDLTGRERLSKWWVTMANRADHITAHVDSVDEQGDKIHVVWKYTADINGQQVSKDIKFVVVRQNGRVKIKRIKND | 1.11 |
| DEQLNKHFVRLMQNNDFEELVRNADKDVRVRIGNKEYQGREEANTALKTFHKQVDKLTIRSYDYHNGSAKIDLEVRFNGQKFRFVVTARLHNGKMKSMRINFTNPEDQKQLDRDMS | 1.41 |
| DEEVREVVKKMLEALKTGNSEQVRRNIDPNARLHVGEFDYHGQTQISEAVKRLSNEIKINYKDMKMRLHNGRVDVKVHQQNNSNGKPEEKTWRATIVAKNGRIKEIDQRDDK | -0.481 |
| DEDKKKHDLIHTFLTLQHNGDFKQLARMFDPNAKVRVGDKDIRGREQIEKMFEKVRESVDRVSVSLTHMDNHGDKVRMEARVTQHVNGRNHDFTITITFRQVGDKVRASHQSVS | 0.584 |
| DETEKAKTFMDELRKVLQTGDEEQISRNMDPNARLNVGDKTIHGRERLAKEMSDEVKRADHIDIKVKSISVHNGKVRVDFFFTLEYNGQHRRTRRIMHADISDGQIKIKQIHDN | 1.4 |
| DEDEKRELARRFAKNFLHGDHDNIRDLADKDVDAQVGDQTFTGTEQLMRVVKEVRDRVDHFNLTSVDVHNGQADIHARAKVNGRDYRVKIRIKIHNGRILHVQFNRR | 1.18 |
| EEEKLQKVMEKMFRAVQNGNVEQLKKLGKEDVQFQFVDKRVQGAETYAQEMEKTHRQGNQFEIKEAQVKDDKVTMRTVVDYGDQRITVKAEAQYDGGRLDNARVELTEEYREVLKKG | -0.214 |
| DEDALKQMHENLENIKEGDPDKIKKMFDENARVEVGDKVLNGRDQASKFWSELRDQINIHIRDVKLSVSGEEVTINIDARFTHNGQPQTSIFRIEAELHNGTIKSLRVKLDG | 2.02 |
| DKDTEQHFADSMNQIIEQGNPKKAMKLADKDVQMQIGDKTYKGREEMMKQIKRFWKHVDEIRVKDVKVNDGQININVILDFNGKKVEVRIVIHVHNGKIHELRVDPKDKEQFEK | 1.09 |

| Sequence | protease stability score |
| --- | --- |
| DEKDVRILEEYVNAWNTNDPDTLNNLADPNARFKIGNKEFQGRDTLDRLAKQLRKEMRVTVHDVHAKDDDGRVDAKVDAVMHYNGKPNRDTFHFDAKVHNGRIRELNVQFDEKRKKKVDS | -0.065 |
| DEDKVAHDMMKEIQSIFERGDRDTWRRMFDPNAEMHVGDKRIHGREHFSRWAQRSVERVDHHEMHVRSVSVDNGTITVSAVEVENVNGHEDKRRFVVRANLEGDKVQWKRRSEQ | 0.096 |
| DEEAFKVMEKLEEDIHTGSEENIEKLFDPNARLRVGDHVVDGRHNIAKHVRDVRESARLEFSVRTYDMQGEKVRLDVTWRREHNGQPESATATVVAEIHNGRIVSVTVDERK | 0.801 |
| DEEKENRDIQTLMKNMVTGNEQEVMKNADKNVNLVVGDKTYHGREKIREFVRQLRERADHQEIKSVHATNGRAQADMVVNVNGKDIRFTVTMEASNGKAKHIQFDPNFFRKIQS | -0.079 |
| DQDAIRRLDEALRAEETGNEKQLKDLFDPNVEFVIGDDEYHGMDSYAKDVRRRKQNMRDHIEHVDMHDNGSQIHIRYRQVANINGTPVKYEITATAEVHNGRFKRMEYRIDEDEQRKLDS | 0.026 |
| DEEKMEDFVRKLRTGDPKQMHDNVDKDATLTIGDKKWHGRERVATAIRKWLHRADHVRIDRYDIDGDHVRIDARVTFNGKNLKVVLEYRIHNGKVKSVVLKVTSTEVQRQIDKLLS | 1.37 |
| DHEAKEIAEKIQRALTSNDPDHLNRQLDPNVRLQIGDKEVEGRQEAHNWLQKVVDEQEISINISDINVNGNHIRIHAVVENQVNGRPFHYEVVIIIIIHNGRVRSQRYQLDEDQDRRIKQ | 0.047 |
| DTSDNKRAKELLDVLRTGDKEDFKNLVDENVRVVVGDKEVHGRDEIAEDISRKKKEMRYTFKVEDLQDHNGHVKVDMRQSSEHNGSPHHSDAKVTVNFENGKVHDVVLRDDG | -0.04 |
| DDDLVRKLNHMVKVMQNGDPDKIVDQMDPNARLIVGDKNVHGRDEARRFMEKVNKHLRFEIKSVTLHDRPNNANADVDANFHINGRPVRLKYIIVVSVHNGRIKEVQLRLSEDQERKLEK | 0.71 |
| DDKQQMEEMLQKYQEALDTGDPEKLASLFDENAEVRIGDKVYRGHEDIKRAAKHLLDNVDHIEIRLRSLETRPGRIHARLQMNVRHNGKNTTKTLHVVARKQGDEFVVEHMEVE | 2.07 |
| EEELNKVFEDLLEAEKTGDPDKIMRYFDPNARVSYGDKHIHGREEIRKDADRRKEHMRRDIHDYRIDARGDKVRFTADFTQTHNGQPRRHRMRMEVRVKGDKFRHFRIDEDG | 0.083 |
| DDSREIEKFMTTVERALRRGDEHKLREMFPEDAHLEVGDKTYRGRENVVEANKEWANKFDHIHIRYDKLRVDNGKFDITITYVLKHNGRQETRRAKVVAHKTNGQVKMKSVFDT | 0.482 |
| DERQNERFETLVKAIEEGDEDEAREQMDPNVRIEVGDKVIHGMDEFADTVRRTREELRVEFKIKRLRIKNGQVDVEMHVTFDHNGEPETARMVIKVNAHNGKIKNVVMRIHK | 1.6 |
| DDKTIKENLKVFNRGNPDDMKTLMDKDVRLEVGEKSVHGREQAQTWQDRYERQVDHRRVKSYSMNGNNVVADMVVQVNGREYEVRLEVHVHNGRIKVLRLEVRDEDDRRNLKRLLS | 0.211 |
| DKEILDLVNEFLKAQRDNDPDRVSELADPNVKVHYGDKQIRGREEVNKQVEKEQKEIQVDFRIKHVTVENGRADLNFRYHANVNGQPISFDARIEMQFHNGRLKRLVLRMPEEAVKTMDS | 0.118 |
| DEQERAQEALRRFLRVFQEGDPDRARQQADKDVQMVVGDKEYEGREQVSRAIESLRERVDEFHITVRRITVSGNRVVVDAKLKLNINGKEDDVTLKLVIDVSGDKISIKRVEVR | 1.12 |
| DDHRAKQAVKAWTDNNPDNLRELFDKNVRVEIGEFTLHGREDAQSMVQRLHSRADHVEYKDIKVSNGRINIDVVYMVDGHRVRATIHLTIENGRLKSMEVRFTSEEDQKKAKRAFE | 0.09 |
| DEDAQTQVEKMLKNMQRGDNQEVNKMFDKNVEFRVGDRDIHGREEYARQVSREHKESRVEFRHIHARVKGDHVRIRVDVVRQVNGKPQRMTVEFEVQAHNGKIKRFQVEFDPDEERRVQK | 0.196 |
| DDKEVRRNAEIALKALRTGDEDDAMEQADEDAKMVIGDKEVHGREKLREAVKDFKEEADHVQVRHFEVQNGRVNAEMEVDVNGQKQIYVMHVEVHNGKIKEINIQHK | 0.787 |
| DPKKMKEIADKMAKAVLNGNEEEVKKFGAPNVEAEVADQRTQGVDEIVKMLQKVKRMGMEVHTEEKREEGDFIEVHTKYRRGDTEATMTVQYYADNGKVKKIKVEYDRDAKKLFKHG | 0.232 |
| DETNVRSVERFVHALKQGDPDKLHRNADPNVKVQIGDKVIHGREELSKDQKRRNKSMRLSYKDYRNEDTNGNVIVHLTFTSERDGQPRENEYRAHITLNNGKIREVDMKSDG | -0.288 |
| DEDINKMVKEFIRNMQNGNHSRLAQLADPNARVQIGDKTLHGREDLERHVRELTERSRVEYKSVDVKVHNGRAHLHLDVVVHHNGRPQRSRVQAVFTAQGDKIKDIRVESNQ | 0.116 |
| DQENLELMNRLLEAISSNDESKFRRLVDPNVRVVIGDEQYHGRETLQKLLRDHNEHSRNDEHIHRVELHNGRVNMDVTREVDHNGRPQTDKFEIVATANNGKAVRMRFERTS | -0.164 |
| DEEKLRRMAERLIRAFDQGDRKRMEDNMDPNVELQVGETVFHGREQVTKALYELRKQVDHFELKSVDIKGEKVVVHVILNINGKHVEMNWVFEAHDGKVKEIKLNPDNQREAET | 2.15 |
| DERKQENVAKRVIRALQTGDSDMMERLVDPNAEVRYGDKRLRGREELREFVTTFKRAVDHLSFDRFEVHNGRAVANAKLNVNGRVMHVRIIVNFHDGRVTHIQIDVTDESQATRARS | 0.643 |
